The record followed here is patent US20180208648A1 (SCHOLAR ROCK, published 2018).

Residue numbers refer to the chain shown, from its start.

Test [1] deals with T1, human proGDF11 (human, UniProt O95390 25-407, biotinylated (NHS-PEG4-Biotin), site not stated).
T1 sequence: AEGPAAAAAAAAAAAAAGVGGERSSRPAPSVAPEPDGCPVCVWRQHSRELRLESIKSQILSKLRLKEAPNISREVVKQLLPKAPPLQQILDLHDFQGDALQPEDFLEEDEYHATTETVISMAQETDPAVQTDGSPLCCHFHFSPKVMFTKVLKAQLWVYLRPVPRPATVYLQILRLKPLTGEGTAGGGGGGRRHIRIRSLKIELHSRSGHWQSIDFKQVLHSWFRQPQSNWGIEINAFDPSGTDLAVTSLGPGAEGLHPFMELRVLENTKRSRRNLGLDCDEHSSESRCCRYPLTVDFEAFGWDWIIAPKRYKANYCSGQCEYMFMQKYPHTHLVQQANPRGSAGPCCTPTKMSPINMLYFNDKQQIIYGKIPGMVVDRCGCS
The experiment in a line: cell-based or functional assay.

The next test concerns the target T2, human latent GDF11 (human, UniProt O95390 25-407, biotinylated, site not stated).
T2 construct: also called hu latent GDF11
T2 sequence: T1 sequence
The experiment in a line: BLI (ForteBio Octet). On the technique in general: Biolayer interferometry detects binding as a change in optical thickness at a sensor tip.

Test [2] has as its target T1, human proGDF11. In words: BLI (ForteBio Octet).
The next test has as its target T3, murine proGDF11 (mouse, UniProt Q9Z1W4 25-405, biotinylated, site not stated).
T3 construct: also called mu proGDF11
T3 sequence: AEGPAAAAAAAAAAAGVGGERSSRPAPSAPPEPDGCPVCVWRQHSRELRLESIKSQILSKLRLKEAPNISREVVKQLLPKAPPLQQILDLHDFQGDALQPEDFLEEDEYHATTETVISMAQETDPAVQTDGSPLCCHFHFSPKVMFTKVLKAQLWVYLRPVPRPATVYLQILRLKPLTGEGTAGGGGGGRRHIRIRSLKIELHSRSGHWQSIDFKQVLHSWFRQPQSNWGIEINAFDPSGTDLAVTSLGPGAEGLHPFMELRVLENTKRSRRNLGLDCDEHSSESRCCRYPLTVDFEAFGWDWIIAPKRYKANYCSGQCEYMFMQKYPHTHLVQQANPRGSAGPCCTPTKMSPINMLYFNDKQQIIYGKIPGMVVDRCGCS
The experiment in a line: BLI (ForteBio Octet).

A further test has as its target T4, human proGDF8 (human, UniProt O14793 24-375, biotinylated, site not stated).
T4 construct: also called hu proGDF8; human proMyostatin
T4 sequence: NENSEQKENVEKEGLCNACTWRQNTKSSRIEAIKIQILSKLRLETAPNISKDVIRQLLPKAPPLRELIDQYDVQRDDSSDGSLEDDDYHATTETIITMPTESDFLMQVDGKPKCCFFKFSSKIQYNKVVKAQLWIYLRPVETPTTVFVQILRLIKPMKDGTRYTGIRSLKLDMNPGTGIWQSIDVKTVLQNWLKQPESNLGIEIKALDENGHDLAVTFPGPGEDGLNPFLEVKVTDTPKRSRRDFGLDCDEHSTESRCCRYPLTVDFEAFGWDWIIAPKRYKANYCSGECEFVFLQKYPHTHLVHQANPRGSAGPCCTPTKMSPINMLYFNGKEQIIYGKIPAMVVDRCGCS
In words: BLI (ForteBio Octet QKe), antigen on streptavidin biosensor, antibody in solution.

The target in a further test is T5, human latent GDF8 (human, UniProt O14793 24-375, biotinylated (immobilized on streptavidin biosensors), site not stated).
T5 construct: also called human latent Myostatin
T5 sequence: T4 sequence
The description is as above.

A further test deals with T6, human proActivin A (human, UniProt P08476 21-426, biotinylated (immobilized on streptavidin biosensors), site not stated).
T6 construct: also called human Activin A; Inhibin-beta A pro-protein
T6 sequence: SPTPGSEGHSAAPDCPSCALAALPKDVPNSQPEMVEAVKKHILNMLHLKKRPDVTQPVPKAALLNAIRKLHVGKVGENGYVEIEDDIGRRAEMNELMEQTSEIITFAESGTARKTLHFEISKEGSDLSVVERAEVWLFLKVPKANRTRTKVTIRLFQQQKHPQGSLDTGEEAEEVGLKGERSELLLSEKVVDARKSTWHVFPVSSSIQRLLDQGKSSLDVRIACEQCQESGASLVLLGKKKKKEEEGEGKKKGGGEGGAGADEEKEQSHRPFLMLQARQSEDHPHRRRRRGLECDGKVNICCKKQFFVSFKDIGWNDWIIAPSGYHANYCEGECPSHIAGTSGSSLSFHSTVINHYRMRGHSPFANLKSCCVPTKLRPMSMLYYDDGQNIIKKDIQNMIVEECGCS
The description is as above.

B1: GDF11 Inh-2 (antibody, V domains shown)
VH: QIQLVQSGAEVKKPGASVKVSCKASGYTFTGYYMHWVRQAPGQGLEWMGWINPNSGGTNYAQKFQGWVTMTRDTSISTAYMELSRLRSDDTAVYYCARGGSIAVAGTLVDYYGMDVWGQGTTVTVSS
VL: DIQMTQSPSSLSASVGDRVTITCQASQDISNYLNWYQQKPGKAPKLLIYDASNLETGVPSRFSGSGSGTDFTLTISSLQPEDVATYYCQKYSTAPLTFGGGTKVEIKR
notes: also called Clone GDF11 Inh-2
The term Kd denotes a measure of binding affinity in units of concentration. For the molecule B1, in the test with human proGDF11 [1], the “EC50, proGDF11 activation assay at 50 nM proGDF11” value worked out at 27.5 nM. Further, the results for the Kd with human latent GDF11, with human proGDF11 [2] and in the test with murine proGDF11 were 0.27 nM, 0.91 nM and 1.73 nM, respectively. In addition, the binding result in the test with human proGDF8, with human latent GDF8 and in the test with human proActivin A was “no binding (tested: 50 µg/mL)” each time.

B2: GDF11 Inh-4 (antibody, V domains shown)
VH: QVQLVQSGAEVKKPGASVKVSCKASGYTFTSYGISWVRQAPGQGLEWMGWISAYNGNTNYAQKLQGRVTMTTDTSTSTAYMELRSLRSDDTAVYYCARTPPLWFGEYGAFDIWGQGAMVTVSS
VL: B1 VL with E81D, V83F, K90Q, Y91S, S92Y, A94T, L96I, G100Q, K103R, V104L
notes: also called Clone GDF11 Inh-4
Regarding B2, the “EC50, proGDF11 activation assay at 50 nM proGDF11” value with human proGDF11 [1] was 26.7 nM. In addition, the Kd in the test with human latent GDF11 was determined as 0.31 nM; with human proGDF11 [2], 1.08 nM. Moreover, the binding result with human proGDF8, with human latent GDF8 and in the test with human proActivin A was “no binding (tested: 50 µg/mL)” in each case.
